Experimental data published in patent US20080226722A1, “Gel Composition Comprising Charged Polymers” (priority 2004, published 2008).

How the values were obtained:
[1] = Protein release from gels comprising anionically and cationically charged microparticles (release buffer, 37° C., BCA Protein Assay); assay type: physicochemical; settings: for time to reach a release of 50% of protein: HEPES pH 7 isotonised with NaCl, 37° C.
Procedure: To each of the gels prepared according to example 5, 1.5 mL release buffer (HEPES, pH 7, 100 mM, isotonised with NaCl) was added. Subsequently, the cups were incubated at 37° C. Samples of 1.0 mL were taken at various intervals and replaced by 1.0 mL fresh buffer. The protein concentration in the samples was measured […] using the BCA Protein Assay.
Gels loaded with IgG were prepared in analogy to example 5 and tested in analogy to example 6, except that IgG was used as a model protein instead of lysozyme and BSA.

[2] = Incorporation of protein into charged microparticles; assay type: physicochemical; settings: neutral or physiological pH

Substance	protein released ([1]; after about 60 days, gels prepared in analogy to example 5)	release rate compared with the other model proteins ([1]; gels of oppositely charged microparticles)	incorporation into negatively charged microparticles [2]	incorporation into positively charged microparticles [2]	time to reach a release of 50% of protein ([1]; 12.5%-gel (solid content about 12.5%))	time to reach a release of 50% of protein ([1]; 25.5%-gel (so in the source))
IgG	approx. 50%	substantially slower	–	–	–	–
lysozyme	–	–	easily incorporated	not very efficiently incorporated	about 20 h	about 85 h
